Measured values from patent US20060205646A1.

Molecular target: MMPs in infected porcine wound fluid
Experiment: cell-based or functional assay

Substance: γ-D-crystallin (from UniProt P07320 2-174)
- inhibition of MMP activity (Fluorogenic Peptide Substrate I), 0.4 mg/mL γ-D-crystallin: 50%
